Data: article PMC5261807 (2017)
Non-standard residues stand in square brackets, D forms with d. Primed or numbered codes have the meaning given here. No end group written: not given here. Me2a″ = asymmetric dimethylarginine (Rme2a); Me2s″ = symmetric dimethylarginine (Rme2s); Arg(Me2a) = CN(C)C(=N)NCCC[C@H](N)C(=O)O; Lys(Me3) = C[N+](C)(C)CCCC[C@H](N)C(=O)O; Arg(Me2s) = CN=C(NC)NCCC[C@H](N)C(=O)O; pT = C[C@@H](OP(=O)(O)O)[C@H](N)C(=O)O; Me2a = asymmetric dimethyl (on Arg); Lys(Me2) = CN(C)CCCC[C@H](N)C(=O)O; Me2s = symmetric dimethyl (on Arg); pS = N[C@@H](COP(=O)(O)O)C(=O)O; Lys(Me) = CNCCCC[C@H](N)C(=O)O; Me3″ = trimethyl lysine (Kme3); Me3 = trimethyl (on Lys); Me2 = dimethyl (on Lys)

T1: Bdf1 bromodomain 2 (GST-tagged, WT) (Saccharomyces cerevisiae (strain ATCC …, UniProt P35817))
T1 chain: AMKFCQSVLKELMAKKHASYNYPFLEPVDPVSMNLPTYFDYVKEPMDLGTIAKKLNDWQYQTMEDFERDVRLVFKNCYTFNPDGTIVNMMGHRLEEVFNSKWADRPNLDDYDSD

T2: Bdf1 bromodomain 1 (GST-tagged, WT) (Saccharomyces cerevisiae (strain ATCC …, UniProt P35817))
T2 chain: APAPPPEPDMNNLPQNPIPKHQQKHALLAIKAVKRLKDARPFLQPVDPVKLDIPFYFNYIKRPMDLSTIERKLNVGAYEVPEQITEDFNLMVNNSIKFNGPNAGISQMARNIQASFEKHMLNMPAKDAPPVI


Key:
[1] = biological target: T1, Bdf1 bromodomain 2 (GST-tagged, WT); experiment: histone peptide array probed with recombinant GST-bromodomain, signal normalised to myc peptide control
[2] = biological target: T2, Bdf1 bromodomain 1 (GST-tagged, WT); experiment: as above

binding score [1]	binding score [2]	Binder
0.00895	0	ARTKQTARKSTGGKAPRKQ (A Rme2s T Kme2 Q T A R Kme1 S T G G K A P R K Q)
0.00502	0	[pS]GRGKQGGKARAKAKSRSS
0.00915	0.00179	ARTK(Ac)QTAR(Me2a)K(Me2)STGGKAPRKQ
0.00305	0.0136	ARTKQTARKSTGGKAPRKQ (A Rme2s T Kme3 Q T A Rme2a Kac S T G G K A P R K Q)
0.00797	0	ARTKQTARKSTGGKAPRKQ (A Rme2s T Kme2 Q T A Rme2a Kme3 S T G G K A P R K Q)
0	0	PRKQLATKAAR[Lys(Me3)]SAPATGG
0.00915	0.0672	ARTK(Ac)QTAR(Me2s″)K(Ac)STGGKAPRKQ
0.000885	0	ARTKQTARKSTGGKAPRKQ (A R T Kme2 Q T A Rme2a Kme2 S T G G K A P R K Q)
0.0105	0.00143	ARTKQTARKSTGGKAPRKQ (A Rme2a T Kac Q T A Rme2a Kme2 S T G G K A P R K Q)
0	0	PRKQLATKAAR(Me2a″)K(Me3″)[pS]APATGG
0.00915	0.0228	ARTKQTARKSTGGKAPRKQ (A R T Kme2 Q T A Rme2a Kac S T G G K A P R K Q)
0	0	SGRGKGGKGLGKGGAKRHR (S G R G K G G K G L G K G G A Kac R H R) [H4 1-19]
0.00187	0.00161	ARTKQTARKSTGGKAPRKQ (A Rme2s T Kme3 Q T A Rme2s Kme1 S T G G K A P R K Q)
0	0.0113	AR(Me2a)TK(Me)QTAR(Me2s)K(Me3)STGGKAPRKQ
0	0	A[Arg(Me2a)]T[Lys(Me2)]QTA[Arg(Me2a)][Lys(Me3)]STGGKAPRKQ
0	0	ARTKQTARKSTGGKAPRKQ (A R T K Q T A R Kac S pT G G K A P R K Q)
0	0.000538	ART[Lys(Me3)]QTA[Arg(Me2a)][Lys(Me2)]STGGKAPRKQ
0.0894	0.0545	ARTKQTARKSTGGKAPRKQ (A Rme2s T Kac Q T A Rme2a Kac S T G G K A P R K Q)
0	0.00143	PRKQLATKAAR(Me2a″)K(Ac)[pS]APATGG
0.00325	0	ARTKQTARKSTGGKAPRKQ (A R T Kme2 Q T A Rme2s Kme2 S T G G K A P R K Q)
0	0.00126	A[Arg(Me2s)]T[Lys(Me)]QTA[Arg(Me2a)][Lys(Me)]STGGKAPRKQ
0.0062	0	AR[pT]KQTARKSTGGKAPRKQ
0	0	A[Arg(Me2a)]TK(Me)QTARKSTGGKAPRKQ
0	0.00699	PDPAKSAPAPKKG[pS]KKAVT
0	0	ARTKQTARKSTGGKAPRKQ (A Rme2s T Kme2 Q T A Rme2a Kme2 S T G G K A P R K Q)
0	0	PRKQLATKAA[Arg(Me2a)]KSAPATGG

binding score [1]	binding score [2]	Binder
0.162	0.00663	[pS]GRGK(Ac)QGGK(Ac)ARAKAKSRSS
0	0.00143	PDPAK(Ac)SAPAPKKGSK(Ac)KAVT
0	0	ARTKQTARKSTGGKAPRKQ (A Rme2a T Kac Q T A Rme2s Kme1 S T G G K A P R K Q)
0.00305	0	ARTK(Me)QTARKSTGGKAPRKQ
0.388	0.0949	[pS]GRGK(Ac)QGGK(Ac)ARAK(Ac)AKSRSS
0.0105	0	AR(Me2s″)TK(Me)QTARK(Me)STGGKAPRKQ
0.0394	0.0346	A[Arg(Me2a)][pT]K(Ac)QTARKSTGGKAPRKQ
0	0.00681	ARTKQTARKSTGGKAPRKQ (A R T K Q T A R K pS pT G G K A P R K Q)
0.329	0	PDPAK(Ac)SAPAPKK(Ac)GSK(Ac)KAVT
0.00482	0.0188	A[Arg(Me2a)]TK(Ac)QTA[Arg(Me2s)][Lys(Me2)]STGGKAPRKQ
0.127	0.0151	SGRGK(Ac)QGGKARAK(Ac)AKSRSS
0	0	ARTKQTARKSTGGKAPRKQ (A R T K Q T A R Kme2 S pT G G K A P R K Q)
0	0.00269	ARTKQTARKSTGGKAPRKQ (A Rme2a T Kme3 Q T A Rme2s Kme2 S T G G K A P R K Q)
0.186	0.0477	[pS]GRGKQGGK(Ac)ARAK(Ac)AKSRSS
0.00226	0	ARTKQTARKSTGGKAPRKQ (A Rme2s T Kme2 Q T A Rme2s K S T G G K A P R K Q)
0	0	PRKQLATKAA[Arg(Me2s)]KSAPATGG
0.104	0.0411	ARTKQTARKSTGGKAPRKQ (A R T K Q T A R Kme2 S T G G Kac A P R K Q)
0.00305	0.00968	RKSAPATGGVKKPHRYRPG (histone peptides carry modifications given inline in the sequence and in columns 4-7 (Kac, Kme1/2/3, Rme2a/s, Cit, pS/pT); N-terminus free or acetylated) [H3 26-45]
0	0	A[Arg(Me2s)]T[Lys(Me2)]QTA[Arg(Me2s)][Lys(Me2)]STGGKAPRKQ
0	0	ARTKQTARKSTGGKAPRKQ (A R T Kme3 Q T A Rme2s Kme3 S T G G K A P R K Q)
0.00915	0.00897	A[Arg(Me2a)]TK(Ac)QTARKSTGGKAPRKQ
0.00148	0	ARTK(Me3)QTARKSTGGKAPRKQ
0.000885	0.00251	ARTKQTARKSTGGKAPRKQ (A Rme2a T Kme1 Q T A Rme2a Kme2 S T G G K A P R K Q)
0.00305	0	ARTKQTARKSTGGKAPRKQ (A R T K Q T A R Kme3 S T G G K A P R K Q)
0.00384	0.00126	ARTKQTA[Arg(Me2a)]K(Ac)[pS]TGGKAPRKQ
